T1: human 2Ig-B7H3 antigen (R&D cat#1949-B3-050/CF) (human, UniProt Q5ZPR3 29-245)
T1 construct: Commercial product; The entry as printed is the B7H3 extracellular region (2Ig form) followed by a His-tag; also called human B7H3 antigen for screening and detection
T1 sequence: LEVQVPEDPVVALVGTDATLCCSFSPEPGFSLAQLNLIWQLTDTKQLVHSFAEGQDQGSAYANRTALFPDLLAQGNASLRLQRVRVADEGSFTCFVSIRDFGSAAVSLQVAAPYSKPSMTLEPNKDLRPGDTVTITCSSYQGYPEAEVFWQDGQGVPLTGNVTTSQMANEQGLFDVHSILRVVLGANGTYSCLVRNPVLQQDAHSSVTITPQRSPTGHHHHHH

T2: human 4Ig-B7H3 antigen (SinoBiological cat#11188-H08H) (human, UniProt Q5ZPR3 29-461)
T2 construct: Commercial product; The entry as printed is the B7H3 extracellular region (4Ig form) followed by a His-tag; also called Human 41g-B7H3; human B7H3 antigen for detection
T2 sequence: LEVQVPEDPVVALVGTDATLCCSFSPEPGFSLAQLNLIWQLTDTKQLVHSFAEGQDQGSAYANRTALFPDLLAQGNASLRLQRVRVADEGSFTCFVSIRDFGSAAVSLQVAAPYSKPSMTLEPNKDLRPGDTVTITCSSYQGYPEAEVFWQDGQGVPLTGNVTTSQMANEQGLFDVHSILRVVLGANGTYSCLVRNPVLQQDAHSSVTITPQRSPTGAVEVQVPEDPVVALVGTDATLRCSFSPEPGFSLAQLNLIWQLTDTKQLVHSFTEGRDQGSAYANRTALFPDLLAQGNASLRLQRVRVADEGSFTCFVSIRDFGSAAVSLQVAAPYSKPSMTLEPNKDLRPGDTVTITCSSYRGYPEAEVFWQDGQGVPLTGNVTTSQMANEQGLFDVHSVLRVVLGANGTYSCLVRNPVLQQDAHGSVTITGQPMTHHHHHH

B1: h1702 antibody (antibody, human IgG1, lambda)
heavy: not shown
light: QTVVTQEPSFSVSPGGTVTLTCGLSSGSVSTSHYPSWYQQTPGQAPRMLIYNTNTRSSGVPDRFSGSILGNKAALTITGAQADDESDYYCAIHVDRDIWVFGGGTKLTVLGQPKANPTVTLFPPSSEELQANKATLVCLISDFYPGAVTVAWKADGSPVKAGVETTKPSKQSNNKYAASSYLSLTPEQWKSHRSYSCQVTHEGSTVEKTVAPTECS
notes: Fully human IgG1/lambda full-length antibody from a phage library, expressed in HEK293E cells; also called B7H3 antibody h1702; anti-B7H3 antibody
B2: ADC-2 (antibody 1702DS conjugated with compound 5-A, formula FADC-2, n=7.24) (antibody, human IgG1, lambda)
heavy: not shown
light: DTVVTQEPSFSVSPGGTVTLTCGLSSGSVSTSHYPSWYQQTPGQAPRMLIYNTNTRSSGVPDRFSGSILGNKAALTITGAQADDESDYYCAIHVDRDIWVFGGGTKLTVLGQPKANPTVTLFPPSSEELQANKATLVCLISDFYPGAVTVAWKADGSPVKAGVETTKPSKQSNNKYAASSYLSLTPEQWKSHRSYSCQVTHEGSTVEKTVAPTEC
modifications: linker-drug compound 5-A (maleimide-GGFG-exatecan analog) coupled after TCEP reduction of the antibody's disulfide bonds; average n=7.24 per antibody; positions not given
notes: Antibody-drug conjugate; also called B7H3-ADC

Experiments:
[1] = molecular target: T1, human 2Ig-B7H3 antigen (R&D …); test: SPR (Biacore T200), antibody captured on Protein A chip, antigen flowed over, 1:1 Langmuir fit
Text: (§1) A biosensor chip Protein A (Cat.#29127556, GE) was used to affinity capture a certain amount of antibody/ADC to be tested. Series diluted human 2Ig-B7H3 antigen (Cat.#1949-B3-050/CF, R&D) and human 4Ig-B7H3 antigen (Cat.#11188-H08H, Sino Biological) were flowed through the surface of the chip. Real-time reaction signal was detected by using Biacore instrument (Biacore T200, GE) to obtain the association and dissociation curves. After completion of each cycle of dissociation, the biochip was washed and regenerated with glycine-hydrochloric acid regeneration solution (pH 1.5) (Cat.# BR-1003-54, GE). The buffer used in the experiment was HBS-EP buffer solution (pH 7.4) (Cat.# BR-1001-88, GE).
(§2) The experimental data was fitted with BIAevaluation version 4.1 GE software in a (1:1) Langmuir model to obtain affinity values.

[2] = molecular target: T2, human 4Ig-B7H3 antigen (SinoBiological …); test: as above
Text: as §1, §2

[3] = molecular target: T2, human 4Ig-B7H3 antigen (SinoBiological …); test: SPR (Biacore T200), ADC captured on Protein A chip, antigen flowed over, 1:1 Langmuir fit
Text: as §1, §2

Row | Binder | Kd [1] [nM] | Kd [2] [nM] | Kd [3] [nM]
1 | B1 | 797 | 8.55 | 
2 | B2 |  |  | 7.55

— patent US20210347894A1 (JIANGSU HANSOH PHARMACEUTICAL GROUP, published 2021)
